From patent US20250154262A1

target: hFcγRIIIa-V158 (human) (UniProt P08637); experiment: SPR (Carterra LSA), protein AG capture
Sequence (P08637 17-208 F176V limits assumed): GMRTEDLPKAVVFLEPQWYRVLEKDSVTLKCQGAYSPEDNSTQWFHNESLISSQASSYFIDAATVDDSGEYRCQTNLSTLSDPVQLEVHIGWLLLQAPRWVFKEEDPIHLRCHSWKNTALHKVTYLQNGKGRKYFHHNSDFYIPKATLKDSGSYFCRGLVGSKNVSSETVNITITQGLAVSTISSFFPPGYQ

Substance | Fold-change relative to WT | Kd | koff | kon
A330Y_D376V_Y373W (antibody) | 2.4 fold | 123 nM | 0.0786 s⁻¹ | 637000 M⁻¹ s⁻¹
A330Y_S267A_D376V_S298A (antibody) | – | 67.9 nM | – | –
H268D_A330Y_A339T_Y373W (antibody) | 4.4 fold | 66.3 nM | 0.019 s⁻¹ | 287000 M⁻¹ s⁻¹
H268D_A330Y_L251W (antibody) | 2 fold | 149 nM | 0.026 s⁻¹ | 174000 M⁻¹ s⁻¹
H268D_A330Y_L251W_D376V (antibody) | 4.4 fold | 66.2 nM | 0.038 s⁻¹ | 574000 M⁻¹ s⁻¹
H268D_A330Y_L314K (antibody) | 5.9 fold | 49.1 nM | 0.0189 s⁻¹ | 385000 M⁻¹ s⁻¹
H268D_A330Y_Y373W (antibody) | 4.1 fold | 71.7 nM | 0.025 s⁻¹ | 349000 M⁻¹ s⁻¹
H268D_A339T_S298A (antibody) | 6.4 fold | 45.4 nM | 0.0126 s⁻¹ | 278000 M⁻¹ s⁻¹
H268D_L251F (antibody) | 3.9 fold | 73.9 nM | 0.0243 s⁻¹ | 328000 M⁻¹ s⁻¹
H268D_L251F_L314G (antibody) | 4.4 fold | 65.8 nM | 0.0253 s⁻¹ | 385000 M⁻¹ s⁻¹
H268D_L251F_L314K (antibody) | 4.4 fold | 65.6 nM | 0.024 s⁻¹ | 366000 M⁻¹ s⁻¹
H268D_L251F_L314M (antibody) | 3.3 fold | 88.3 nM | 0.025 s⁻¹ | 283000 M⁻¹ s⁻¹
H268D_L251F_L314M_S298A (antibody) | 7.9 fold | 36.7 nM | 0.0125 s⁻¹ | 340000 M⁻¹ s⁻¹
H268D_L251F_L314M_Y373W (antibody) | 3.7 fold | 79.5 nM | 0.023 s⁻¹ | 289000 M⁻¹ s⁻¹
H268D_L251F_L314N (antibody) | 3.9 fold | 74.9 nM | 0.0231 s⁻¹ | 309000 M⁻¹ s⁻¹
H268D_L251F_L314S (antibody) | 4 fold | 73 nM | 0.027 s⁻¹ | 370000 M⁻¹ s⁻¹
H268D_L251F_L314T (antibody) | – | 68.2 nM | – | –
H268D_L251F_L314V (antibody) | 3.4 fold | 84.4 nM | 0.0225 s⁻¹ | 267000 M⁻¹ s⁻¹
H268D_L251F_L314W (antibody) | 1.8 fold | 163 nM | 0.0241 s⁻¹ | 148000 M⁻¹ s⁻¹
H268D_L251F_Y373W (antibody) | 3.3 fold | 88.2 nM | 0.0228 s⁻¹ | 258000 M⁻¹ s⁻¹
H268D_L251I_A330F_S298A (antibody) | – | 32.1 nM | – | –
H268D_L251Q (antibody) | 2.7 fold | 107 nM | 0.047 s⁻¹ | 438000 M⁻¹ s⁻¹
H268D_L251Q_L314E (antibody) | 21.9 fold | 13.3 nM | 0.0152 s⁻¹ | 1.15e+06 M⁻¹ s⁻¹
H268D_L251Q_L314G (antibody) | 6.3 fold | 45.9 nM | 0.0246 s⁻¹ | 536000 M⁻¹ s⁻¹

Substance | Fold-change relative to WT | Kd | koff | kon
H268D_L251Q_L314M (antibody) | 3.1 fold | 93.9 nM | 0.03 s⁻¹ | 319000 M⁻¹ s⁻¹
H268D_L251Q_L314M_Y373W (antibody) | – | 72.8 nM | – | –
H268D_L251Q_Y373W (antibody) | 4.1 fold | 70.2 nM | 0.0292 s⁻¹ | 416000 M⁻¹ s⁻¹
H268D_L251Q_Y373W_S298A (antibody) | – | 25.2 nM | – | –
H268D_L251W (antibody) | 4 fold | 72.8 nM | 0.0682 s⁻¹ | 936000 M⁻¹ s⁻¹
H268D_L251W_A330Y_Y373W (antibody) | 3.9 fold | 74.6 nM | 0.044 s⁻¹ | 590000 M⁻¹ s⁻¹
H268D_L251W_L314K (antibody) | 3.3 fold | 87.8 nM | 0.0476 s⁻¹ | 542000 M⁻¹ s⁻¹
H268D_L251W_L314M (antibody) | 1.5 fold | 188 nM | 0.0564 s⁻¹ | 300000 M⁻¹ s⁻¹
H268D_L251W_L314M_S298A (antibody) | 4.2 fold | 69.1 nM | 0.0269 s⁻¹ | 389000 M⁻¹ s⁻¹
H268D_L251W_L314M_Y373W (antibody) | 1.9 fold | 151 nM | 0.065 s⁻¹ | 431000 M⁻¹ s⁻¹
H268D_L251W_L314N (antibody) | 8.4 fold | 34.5 nM | 0.0223 s⁻¹ | 647000 M⁻¹ s⁻¹
H268D_L251W_L314S (antibody) | 9.4 fold | 31.1 nM | 0.119 s⁻¹ | 3.83e+06 M⁻¹ s⁻¹
H268D_L251W_L314T_S298A (antibody) | – | 51.7 nM | – | –
H268D_L251W_L314V (antibody) | 3.1 fold | 92.8 nM | 0.0231 s⁻¹ | 249000 M⁻¹ s⁻¹
H268D_L251W_S267D_Y373W (antibody) | 2.4 fold | 123 nM | 0.049 s⁻¹ | 397000 M⁻¹ s⁻¹
H268D_L251W_S298A (antibody) | 6.3 fold | 46 nM | 0.0213 s⁻¹ | 463000 M⁻¹ s⁻¹
H268D_L251W_Y373W (antibody) | – | 86.8 nM | – | –
H268D_L251W_Y373W_S298A (antibody) | 3.3 fold | 89.1 nM | 0.034 s⁻¹ | 381000 M⁻¹ s⁻¹
H268D_L314K_L251Q (antibody) | – | 133 nM | – | –
H268D_L314W_Y373W_A330M (antibody) | 7.6 fold | 38.4 nM | 0.0198 s⁻¹ | 516000 M⁻¹ s⁻¹
H268D_S267D_L251I_A339T (antibody) | 4.8 fold | 60.7 nM | 0.0212 s⁻¹ | 348000 M⁻¹ s⁻¹
H268E_L251Q_A339T_L314A (antibody) | – | 118 nM | – | –
H268E_L251W_L314I_A330F (antibody) | 2.6 fold | 111 nM | 0.0308 s⁻¹ | 276000 M⁻¹ s⁻¹
H268E_L314V_L251A_A330M (antibody) | 5.1 fold | 57.6 nM | 0.021 s⁻¹ | 365000 M⁻¹ s⁻¹

Substance | Fold-change relative to WT | Kd | koff | kon
L251F (antibody) | – | 104 nM | – | –
L251F_A339T_L314S_Y373W (antibody) | – | 204 nM | – | –
L251F_S267A_L314S (antibody) | 1.7 fold | 174 nM | 0.038 s⁻¹ | 218000 M⁻¹ s⁻¹
L251I_L314G_A339T_A330F (antibody) | 0.2 fold | 1610 nM | 0.062 s⁻¹ | 38500 M⁻¹ s⁻¹
L314N_S267A_A330M_D376T (antibody) | – | 286 nM | – | –
L314V_A330F_Y373W_H268A (antibody) | 1.5 fold | 190 nM | 0.035 s⁻¹ | 184000 M⁻¹ s⁻¹
L314W_A339T_A330M_D376T (antibody) | 1.6 fold | 179 nM | 0.045 s⁻¹ | 252000 M⁻¹ s⁻¹
S267D_A330Y_A339T (antibody) | 2.7 fold | 109 nM | 0.035 s⁻¹ | 320000 M⁻¹ s⁻¹
S267D_A330Y_D376V (antibody) | 2 fold | 145 nM | 0.0406 s⁻¹ | 279000 M⁻¹ s⁻¹
S267D_A330Y_L251W (antibody) | 2.6 fold | 111 nM | 0.0391 s⁻¹ | 353000 M⁻¹ s⁻¹
S267D_A330Y_L251W_D376V (antibody) | 3.2 fold | 91.4 nM | 0.036 s⁻¹ | 394000 M⁻¹ s⁻¹
S267D_A330Y_L314K (antibody) | – | 268 nM | – | –
S267D_A330Y_Y373W (antibody) | 2.3 fold | 124 nM | 0.0371 s⁻¹ | 298000 M⁻¹ s⁻¹
S267D_L314T_A339T (antibody) | – | 208 nM | – | –
S267D_L314W_L251H_D376V (antibody) | 2.3 fold | 124 nM | 0.036 s⁻¹ | 290000 M⁻¹ s⁻¹
S298A_A330Y_A339T (antibody) | – | 58.4 nM | – | –
S298A_A330Y_A339T_Y373W (antibody) | 3.1 fold | 93.3 nM | 0.0206 s⁻¹ | 221000 M⁻¹ s⁻¹
S298A_A330Y_D376V (antibody) | 3.8 fold | 77.2 nM | 0.0285 s⁻¹ | 369000 M⁻¹ s⁻¹
S298A_A330Y_L251W (antibody) | 3.2 fold | 90.4 nM | 0.038 s⁻¹ | 421000 M⁻¹ s⁻¹
S298A_A330Y_L251W_D376V (antibody) | 2.3 fold | 127 nM | 0.0308 s⁻¹ | 243000 M⁻¹ s⁻¹
S298A_A330Y_L314K (antibody) | 3.3 fold | 88.4 nM | 0.0207 s⁻¹ | 235000 M⁻¹ s⁻¹
S298A_A330Y_Y373W (antibody) | 1.2 fold | 251 nM | 0.0344 s⁻¹ | 137000 M⁻¹ s⁻¹

target: hFcγRIIIa-V158 (human) (UniProt P08637); experiment: SPR, further study

Substance | Fold Change vs. WT | Kd | koff | kon
H268D, A330F, S298A (antibody) | 6 fold | 80.1 nM | 0.0311 s⁻¹ | 389000 M⁻¹ s⁻¹
H268D, L314K (antibody) | 3 fold | 159 nM | 0.0516 s⁻¹ | 324000 M⁻¹ s⁻¹
H268D, L314M, S298A (antibody) | – | 85.1 nM | – | –
H268D, L314N (antibody) | 4.9 fold | 96.5 nM | 0.0452 s⁻¹ | 471000 M⁻¹ s⁻¹
H268D, L314S (antibody) | 3.1 fold | 152 nM | 0.0434 s⁻¹ | 286000 M⁻¹ s⁻¹
H268D, L314T, S298A (antibody) | 10.2 fold | 46.8 nM | 0.0217 s⁻¹ | 465000 M⁻¹ s⁻¹
